{
  "source": "paper PMC12589655",
  "about": "(Nature Communications, 2025)",
  "target": "the molecule itself",
  "assay": "SEC-SAXS",
  "data": [
    {"protein": "CVS wt P3, recombinant (rabies virus CVS-11 phosphoprotein, residues 53-297) (natural protein) MKRLHLDDEKSSNLGEMVRVGEGKYREDFQMDEGEDPNLLFQSYLDNVGVQIVRQMRSGERFLKIWSQTVEEIVSYVTVNFPNPPRRSSEDKSTQTTGRELKKETTSAFSQRESQPSKARMVAQVAPGPPALEWSATNEEDDLSVEAEIAHQIAESFSKKYKFPSRSSGIFLYNFEQLKMNLDDIVKEAKNVPGVTRLAHDGSKIPLRCVLGWVALANSKKFQLLVEADKLSKIMQDDLNRYTSC", "values": [
      {"measurement": "stoichiometry N", "result": 2}
    ]}
  ]
}
